± gives the standard deviation.
Assay: protein stability index of a GFP-peptide fusion (GPS, HEK-293T) (PSI 1-6); higher = more stable
Conditions: c terminus: a fixed tail appended
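Also: 24-mer peptide tiles fused after GFP, lentivirally expressed, FACS-sorted into six equal bins by GFP/DsRed ratio, decoded by Illumina sequencing, PSI is the read-weighted mean bin number.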

Sequence	protein stability index (treatment: DMSO)	protein stability index (treatment: MLN4924 1 uM, 8 h)
LSKDHQEVETEGPESADTGDKSES [TOR1AIP2]	5.67 ± 0.18	5.59 ± 0.19
TFWKEDKAFWKEDNALWERDRNLL [CCDC70]	2.95 ± 0.12	3.2 ± 0.43
LASAYTGRLSMAAADIVNFLTVGS [ZBTB22]	2.77 ± 0.28	3.09 ± 0.66
VLQIDNAKLAADDFRTKYETELSL [KRT36]	3.54 ± 0.37	3.49 ± 0.14
DLVDLFDGTSQSTGGSADLFGGFA [CLINT1]	2.69 ± 0.23	3.2 ± 0.32
LRALKLVITALKCHKYDRNIQVTG [ZER1]	3.14 ± 0.42	3.16 ± 0.65
IQENQRNLYEEGRTAFLWRGNVVL [TRIM43]	2.21 ± 0.43	2.61 ± 0.37
AQDDDRLREERKKAKKNKDKYVGV [CLINT1]	5.27 ± 0.17	5.48 ± 0.38
GPGGRRAGEPGHSPADYLRFQDLV [DYRK1B]	3.07 ± 0.35	3.27 ± 0.6
QIITSLVFHLPFYSSNQLHHFFCD [OR10K2]	2.8 ± 0.094	3.02 ± 0.21
LGQILVSVAGWSLFSLNVISLTCV [SLC19A2]	3.3 ± 0.26	3.21 ± 0.47
RQVQSLMVHQRKLEAELLQIEERH [SMARCE1]	4 ± 0.12	4.23 ± 0.17
GLGASTAEISARTMQSMFAKNFHV [PTPRD]	2.38 ± 0.26	2.56 ± 0.35
PHKGLNLHPLLSGRLGRWLRSTRF [PCDHGC5]	2.35 ± 0.23	2.13 ± 0.28
RLDYLNLKGARLTVEQGCQILDSL [FBXO39]	3.25 ± 0.088	3.54 ± 0.22
KEQAIWKHPQPAPAVTPDPWGVQG [PKD2L1]	3.75 ± 0.22	4.07 ± 0.31
GHAAPGTDAGKAFCMFYAVLGIPL [KCNK9]	2.81 ± 0.19	2.84 ± 0.39
VLVLTKPLGTQVAVNAHQWLDNPE [SEPHS2]	2.4 ± 0.18	2.19 ± 0.37
LDFLPKDVKKEKLSPDIMKDAYVQ [TENT5D]	3.96 ± 0.14	3.78 ± 0.26
RFVQAEGRRATLQRLVEALEENEL [TRADD]	3.57 ± 0.39	3.62 ± 0.37
QVLNETRNQYEALVETNRREVEQW [KRT33B]	4.24 ± 0.43	4.5 ± 0.17
LEFLLALYFLFADAMQLNDKWQGL [CMTM3]	2.77 ± 0.45	2.8 ± 0.93
LDKELRAMLREKFPEFCSSPSPPV [INTS3]	3.22 ± 0.31	3.42 ± 0.31

Sequence	protein stability index (treatment: DMSO)	protein stability index (treatment: MLN4924 1 uM, 8 h)
MWLTPLHRAVASRSEEAVQVLIKH [ANKRD44]	2.29 ± 0.12	2.45 ± 0.18
LSIINFFERLCLTWMFFFMMCVAE [PHTF1]	3.41 ± 1.2	2.81 ± 0.2
MPSWASARDRQPSDFKTDKEGGQA [ELOA2]	5.14 ± 0.43	5.2 ± 0.22
IDPLLYMTEWFMCAFSRTLPWSSV [TBC1D10A]	3.43 ± 0.23	3.16 ± 0.27
DCRYPYEYEGGHIKTAVNLPLERD [CDC25B]	4.13 ± 0.23	4.14 ± 0.63
RCYYYEDTISTIKSVAWEGGACPA [NCF4]	2.31 ± 0.21	2.43 ± 0.24
NIQVTGSAALFYLTNSEYRSEQSV [ZER1]	2.63 ± 0.24	2.84 ± 0.19
KHFLEAIENNKYGWFWVCPGGGDI [ZC3H15]	2.8 ± 0.4	2.43 ± 0.39
KSKTRSLLKRMESLKLKSSHHSKH [DLC1]	3.48 ± 0.14	3.53 ± 0.16
QTPILEGRSGPGCAVLDDSIYLVG [KLHL14]	2.7 ± 0.23	2.63 ± 0.28
EEALKDEEERAQDRIATTDDTTAM [MAGEA10]	5.7 ± 0.17	5.47 ± 0.24
EMTPEKFSVLMEKLCKKGLAATTS [FANCE]	2.75 ± 0.57	2.88 ± 0.36
TVDLELELQIELLRETKRKYESVL [ARFIP2]	2.71 ± 0.19	2.91 ± 0.22
FPKSEQVYLHFLSVVTEDGPEPKD [ZNF232]	2.58 ± 0.5	3.39 ± 0.56
FTQSGPIVSRATGRCLEVEMSKDA [GALNT9]	2.71 ± 0.35	3.34 ± 0.54
TCTDRSGISTGHWSGEVKDKNVQV [FUT8]	4.51 ± 0.21	4.49 ± 0.16
LVGLATAAFGHVQRAEMLPKTSGT [CPOX]	2.9 ± 0.3	2.91 ± 0.14
RALQEEERAAAQARRELQAEREAL [ZBED3]	5.36 ± 0.19	5.45 ± 0.18
PYTRSIQILKDTKSITSAMNELQH [TPH1]	2.61 ± 0.22	2.71 ± 0.16
ACDLQPCPTEPPDDSCQDQPGTNC [ADAMTSL2]	5.49 ± 0.34	5.51 ± 0.39
EKSTVVEGGEVRFNGKGKKIRKPR [DLX1]	4.77 ± 0.28	5.06 ± 0.33
WRYVSSLPQPLAAHAGAVHNGKIY [KLHL14]	2.51 ± 0.26	2.73 ± 0.078
NPVQPIGPQTPKACDSKLTFDAIT [MMP1]	4.21 ± 0.22	4.23 ± 0.22

Sequence	protein stability index (treatment: DMSO)	protein stability index (treatment: MLN4924 1 uM, 8 h)
DAENQKNWLDPAKEIKKQVRSGAW [EPB41L3]	3.55 ± 0.5	–
SRETQRTPMNHQKAVNDETCKASH [FBXO34]	5.06 ± 0.09	5.17 ± 0.19
PLYTLIDVLKYSYVRLVCKDVRAP [ZSWIM9]	2.84 ± 0.25	3.02 ± 0.63
PDLNTLLWEAEDRQNVPRKVPNHY [CPXM2]	3.87 ± 0.27	3.86 ± 0.092
EELDKYWSQQIEESTTVVTTQSAE [KRT18]	5.16 ± 0.27	5.23 ± 0.25
YLSKTYCVDATRETNRLGRLINHS [KMT5A]	2.35 ± 0.046	2.62 ± 0.25
GKEPLDPDPSHSPSDKVGRADAHL [TOR1AIP2]	5.07 ± 0.17	5.32 ± 0.057
RQYRSIEVLIGAGYSTPADIWSTA [SRPK2]	1.9 ± 0.37	2 ± 0.44
ELTLARTDLEMQIEGLKEELAYLR [KRT16]	2.95 ± 0.61	2.79 ± 0.44
STPFKPLALKTPPRVLTLSERPLD [MFF]	4.08 ± 0.17	4 ± 0.15
DIDMTDYDDVRRCCSSADICPKCW [PRIM1]	4.8 ± 0.41	4.84 ± 0.25
LQSFEDLASISTYGFRGEALASIS [MLH1]	2.78 ± 0.16	2.71 ± 0.3
PPLEDFEVLDGVEDAEGEEEEEEE [FKBP8]	5.69 ± 0.27	5.61 ± 0.34
GCGWRCPEHGDRVAELFCRRCRRC [TRIM14]	3.69 ± 0.27	4.12 ± 0.18
NSISSDKEATVPCTEILTEKKDTI [MIA2]	5.29 ± 0.28	5.06 ± 0.21
QSFREQEEPSNKRVRPLARVTSLA [NET1]	4.21 ± 0.17	4.23 ± 0.097
GYFAFMLFRKRLGSMILAFRPRPN [GDAP1]	2.69 ± 0.79	2.37 ± 0.57
WEHSAPQRLPRSAPPGSLVTKVTA [PCDHGC5]	3.84 ± 0.092	4.02 ± 0.18
IMNIEPAILVMHHSMKPHPAITAT [INTS3]	2.24 ± 0.38	2.22 ± 0.16
RNLETQHKVLELTAENERLQKKVE [CEBPB]	5.12 ± 0.57	5.49 ± 0.049
VEQMTKEERQAAQNECQVLKLLNH [NEK8]	4.59 ± 0.18	4.63 ± 0.15
EPGPAGPPPPPSPSSLGPLLPLQR [BTBD1]	4.75 ± 0.24	4.76 ± 0.52
LSLEEELSRVKAAALSERGQAEEE [LRRC45]	5.45 ± 0.2	5.37 ± 0.16

Sequence	protein stability index (treatment: DMSO)	protein stability index (treatment: MLN4924 1 uM, 8 h)
GRVEVLKNGEWGTVCDDKWDLVSA [LOXL2]	4.2 ± 0.32	3.56 ± 0.64
LRDKIMATTIDNSRVILEIDNARL [KRT15]	2.59 ± 0.27	2.66 ± 0.2
PLRNDVDKRGETTSASLLNAGLSH [SLC2A12]	4.55 ± 0.32	4.66 ± 0.22
DEEEEEEEEEEGRFYYSEDDHGDE [KCNA4]	5.56 ± 0.14	5.55 ± 0.28
SVQVDGQARTQKLQGLIPGARYEV [TNXB]	2.6 ± 0.62	3.28 ± 0.26
LTEQVWKVQDALQNQSDSLLALAG [SCARA5]	3.65 ± 0.16	3.82 ± 0.37
EFKQNIENVSVEMLLRKFAESKGT [FCHO1]	2.84 ± 0.27	3.02 ± 0.32
ASADRTVIVWDGDTTRQVQRISCF [WDR41]	2.25 ± 0.27	2.58 ± 0.26
KNDGRIDAQEIMQSLRDLGVKISE [SLC25A25]	3.19 ± 0.21	3.29 ± 0.27
RRRSRKKPSGALGSESYKSSAGSA [EHMT1]	4.86 ± 0.32	5.3 ± 0.073
KLEISTKEVPVVHTETKTITYESS [EPB41L3]	4.83 ± 0.14	4.64 ± 1
GGYTPDLKMSYSRGLIPVKRGPSS [RBMY1A1]	3.9 ± 0.14	3.8 ± 0.28
YPHCTGISQQDPESDSQGQGNGLF [ZC2HC1C]	3.82 ± 0.23	4.43 ± 0.48
MCRVDLRGHMPEWYTKSFGHLCAA [DLC1]	2.23 ± 0.43	2.1 ± 0.53
VERPHSGLPGKVFACLSVLFVTVT [KCNG1]	3.03 ± 0.73	2.52 ± 0.38
ETAVEGDPSGVSGATVGRKSRRSR [C18orf25]	5.484 ± 0.04	5.5 ± 0.25
RPTYFEMKNEKLLSKASEPKYQLF [RNF180]	2.54 ± 0.28	2.78 ± 0.19
QRALHKYSLMKRQMMSATAQNREP [SNX8]	3.24 ± 0.29	3.32 ± 0.18
SVPIIGGFWETIFGNRIKRVKLIS [PHTF1]	2.29 ± 0.23	1.94 ± 0.22
LWWDPIQRLLFSGASDNSIIMWDI [WDFY1]	2.65 ± 0.54	2.69 ± 0.83

Source: the supplement of paper PMC10567573
